Paper PMC4175335, “Thiosulfate Transfer Mediated by DsrE/TusA Homologs from Acidothermophilic Sulfur-oxidizing Archaeon Metallosphaera cuprina*” (The Journal of Biological Chemistry, 2014)

B2: DsrE3A (Mcup_0681) of Metallosphaera cuprina Ar-4, N-terminally His-tagged (natural protein, UniProt F4G1H3 1-133, looked up)
chain: MAQTQTEQAQEEQKKKILIVVTHGPEDLDRTYAPLFMASISASMEYETSVFFMIKGPLLLSKKWQEDERKKGGNPFIHFFDMAKDNNVKMYVCVQSLKDMCHMNESDVVDGIELVGGSTLIDLTLDADRTLFF
notes: DsrE3A, locus Mcup_0681, Metallosphaera cuprina Ar-4; gene amplified from genomic DNA into pET15b; theoretical mass with His tag 17,697 Da; Homotrimer by gel filtration

Assays:
[1] = biological target: DsrE3A-C93S with His-tag (Metallosphaera cuprina Ar-4); assay: SEC; oligomerization analysis, data not shown; proteins incubated with or without 25 μM TCEP at room temperature for 1 h; HiLoad 16/60 Superdex 75; 50 mM Tris-HCl (pH 7.5), 150 mM KCl; 0.5 ml/min
[2] = biological target: DsrE3A-C93S/C101S with His-tag (Metallosphaera cuprina Ar-4); assay: as above
[3] = biological target: DsrE3A-C101S with His-tag (Metallosphaera cuprina Ar-4); assay: as above
[4] = biological target: B2; assay: SPR; Biacore 3000, CM5 chip, 25 °C; DsrE3A covalently immobilised (about 1500 RU); TusA as analyte in PBST (PBS, 0.005% Tween 20, pH 7.4), 30 μl/min, 2 min injection, 8 min dissociation; settings: both partners purified
[5] = biological target: the molecule itself; assay: SEC; oligomerization analysis, data not shown; proteins incubated with or without 25 μM TCEP at room temperature for 1 h; HiLoad 16/60 Superdex 75; 50 mM Tris-HCl (pH 7.5), 150 mM KCl; 0.5 ml/min

## DsrE3A-C93S with His-tag (natural protein)
[1]
  stoichiometry N: 3

## DsrE3A-C93S/C101S with His-tag (natural protein)
[2]
  stoichiometry N: 3

## DsrE3A-C101S with His-tag (natural protein)
[3]
  stoichiometry N: 3

B1: TusA (Mcup_0683) of Metallosphaera cuprina Ar-4, N-terminally His-tagged (natural protein, UniProt F4G1H5 1-80, looked up)
chain: MAQDVKITKTLDVKGMYCPGPVMETAKAIKQINVGEVLEVLATDPAAKPDIEAWARRTGNQILDIQQQGGVTRILVKRAK
notes: TusA, locus Mcup_0683, Metallosphaera cuprina Ar-4; gene amplified from genomic DNA into pET15b; theoretical mass with His tag 10,895 Da; Occurs as monomers and dimers
[4]
  Kd: 0.1 nM
[5]
  stoichiometry N: 2

## B2
[5]
  stoichiometry N: 3
